Data from patent publication US20240190918A1, “FIBRIL PEPTIDES” (Universität Ulm, priority 2021, published 2024).
Entries after “also recorded” stand apart in the source; their conditions may differ. Peptide text beside a SMILES is read from it.

Columns and labels:
[1] = system: Human CD4+ and CD8+ T cells; assay: Viability of transduced human T cells, trypan blue staining; format: cell-based; conditions: 7 days
Method: FIG. 10: RM-8 nanofibrils enhance GALV-γ-RV transduction of T cells. […] GFP expression of CD3+ cells was analyzed by flow cytometry. Viability was determined by trypan blue staining. Human CD4+ and CD8+ T cells were isolated from Buffy coats of two donors. Indicated transduction enhancers were incubated with GAL V-γ-RV and then the mix was used to transduce T cells. Shown are average values (±SD). SD, standard deviation.
For the CAR T cell like process human CD4+ and CD8+ T cells were isolated from Buffy coats of two donors using RosetteSep™ Human CD4+ and CD8+ T Cell Enrichment Cocktail (STEMCELL Technologies) according to manufacturer's protocol. Isolated T cells were activated using Dynabeads™ Human T-Activator CD3/CD28 (Gibco™) according to manufacturer's protocol for three days in presence of 10 ng/ml interleukin-2 (IL-2). After 3 days the magnetic Dynabeads were removed using a magnet and T cells were cultured in presence of 9 ng/ml interleukin-7 (IL-7) and 10 ng/ml interleukin-15 (IL-15). After 1 day T cells were transduced with GALV-γ-RV using the transduction enhancers RM-8 (50 μg/ml), Vectofusin®-1 (10 μg/ml), or RetroNectin (20 μg/ml). […] After 7 days the transduced T cells were analyzed by flow cytometry.

[2] = Fibril stability by UPLC; format: physicochemical; conditions: 2 mg/ml; 10 min, 1 h, 24 h, 10 d at RT or 37° C.
Method: Fibrils were generated by dissolving lyophilized peptides in DMSO to 10 mg/ml followed by adding PBS to receive a final concentration of 2 mg/ml. Fibril stocks were incubated at room temperature (RT) and 37° C. and after 10 min, 1 h, 24 h and 10 days stability assays using ultra performance liquid chromatography (UPLC) with a reverse phase column was performed in collaboration with the Core Facility Functional Peptidomics (Ulm University). Shown is one individual experiment.
Since the stability of pharmaceutical products must be ensured during application (Grassi et al., 2019), we analyzed the stability of RM-8, which contains a C-terminal methionine, an amino acid sensitive to oxidation, by ultra performance liquid chromatography (UPLC). To that end, RM-8 nanofibrils were incubated for 10 min, 1 h, 24 h or 10 d at room temperature (RT) of 37° C. followed by UPLC analysis.

[3] = system: R5-tropic HIV-1; assay: HIV-1 infection of TZM-bl cells, Tat-inducible β-galactosidase activity; conditions: 3 days; for n-fold enhancement of HIV-1 infection: virus treated with 150 μg/ml peptide
Method: HIV-1 was produced from pBRNL4.39-92TH14, a plasmid containing a CCR5 tropic molecular HIV-1 clone (Papkalla et al., 2002). Infectious HIV-1 stocks were prepared by transfection of 293T cells by calcium phosphate transfection and HIV-1 infection of TZM-bl cells was determined by detecting cellular β-galactosidase activity.
To determine the effect on HIV-1 infection, stocks of the CCR5 tropic HIV-1 were generated by transient transduction of 293T cells with proviral DNA and harvested 2 days later. The HIV-1 stock was titrated and a dilution factor of 125 was chosen for infection of TZM-bl cells to reach a maximal infection enhancement. HIV-1 virus was added to serially diluted IL-18 peptides and mixtures were used to infect TZM-bl cells which contain the reporter gene β-galacosidase under the control of the HIV-1-LTR promoter (Wei et al., 2002).

[4] = Thioflavin T (ThT) fluorescence, fibril formation; format: physicochemical; conditions: peptide 2 mg/ml in PBS, RT 10 min; 'except for' = no ThT signal detected
Text: The fibril peptide has the activity of forming fibrils in an aqueous solution, the term “fibril” relating to any threadlike structure or filament comprising, preferably consisting of, a multitude of fibril peptides; preferably, the fibrils are nanofibrils, i.e. have a diameter of from 2 to 20 nm, and/or a length of from 100 nm to 10 μm, preferably of from 100 nm to 5 μm. Preferably, aggregation of fibril peptides occurs spontaneously in aqueous solution, wherein an aqueous solution is a solution comprising at most 28% (v/v), preferably at most 15% (v/v), more preferably at most 10% (v/v), still more preferably at most 5% (v/v), most preferably at most 2% (v/v), organic solvents. Methods for determining the activity of forming fibrils are known to the skilled person and are shown herein in the Examples. Preferably, the activity of forming fibrils is determined by a Thioflavin T binding assay as specified herein in the Examples. The activity of forming fibrils may, however, also be determined by Transmission electron microscopy (TEM), Congo Red staining, measurement of conversion rate, and/or Fourier transform infrared (FTIR) spectroscopy; the aforesaid methods are known in the art.
The peptides were solved in HFIP (1,1,1,3,3,3-Hexafluoro-2-propanol) and were sonicated using an Ultrasonic cleaner. The peptides were stored at −20° C. and for each experiment they were freshly dissolved in DMSO to 10 mg/ml; to generate fibrils, the peptides were diluted in PBS to get 2 mg/ml or 1 mg/ml and incubated for 10 min at room temperature (RT).
The lyophilized RM-8 and its derivatives (Peptides 1-42) were solved in DMSO to 10 mg/ml and stored at 4° C. For each experiment they were freshly solved in PBS to 2 mg/ml and incubated for 10 min at RT.
(§1) Peptides derived from human interleukin-18 were identified by an in silico-screening approach where the human protein interleukin-18 (Q14116) was analyzed by the amyloid prediction tools ZipperDB, TANGO 2.0 and PASTA (FIG. 1A). To examine if these endogenous peptides form nanofibrils, the freshly prepared peptides were incubated with the amyloid specific dye Thioflavin T (ThT), which fluorescence increases upon binding to amyloid fibrils. […] To determine if the IL-18 peptides have the ability to form positively charged fibrils the zeta potential was measured.

[5] = Zeta potential of peptide nanofibrils; format: physicochemical; conditions: peptides incubated at RT for 10 min
Method: FIG. 1: Human interleukin-18 (IL-18) derived peptides form nanofibrils. (A) Table displaying sequences, physical and chemical parameters of peptides derived from IL-18. The positively charged amino acids are written in italics. (B) ThT fluorescence of the tested peptides and EF-C (Protransduzin®-A) which were incubated at RT for 10 min. (C) Zeta potential of peptides which were incubated at RT for 10 min. Shown are average values (±SD) of duplicates from two independent experiments. (D-J) Transmission electron microscopy images of EF-C (D), RK-10 (E-F), RM-8 (G-H), RS-7 (I), and FK-7 (J). […]
FIG. 5: RM-8 analogs from alanine scanning form positively charged nanofibrils. […] (B) ThT fluorescence of alanine scanning derived peptides, RM-8, QH-9 and EF-C. […]
as §1

For `CC[C@H](C)[C@H](NC(=O)[C@H](Cc1ccccc1)NC(=O)[C@@H](NC(=O)[C@@H](NC(=O)[C@@H](N)CCCNC(=N)N)[C@@H](C)O)[C@@H](C)CC)C(=O)N[C@H](C(=O)N[C@@H](CO)C(=O)N[C@@H](CCSC)C(=O)O)[C@@H](C)CC` [RM-8, RTIFIISM] (H-RTIFIISM-OH), the “cytotoxicity on T cells” value [1] was “without showing cytotoxicity; also recorded: not showing cytotoxicity” and the “stability of nanofibrils (UPLC)” value [2] was “stable for 10 days; also recorded: stable over time”.
In the case of “FK-7: peptide derived from human interleukin-18; sequence only in FIG. 1A (FIISMYK; Peptide FK-7)”, the “n-fold enhancement of HIV-1 infection” value [3] is reported as “weak or no effects”.
With “RS-7: peptide derived from human interleukin-18; sequence only in FIG. 1A (RTIFIIS; Peptide RS-7)” the “n-fold enhancement of HIV-1 infection” value [3] was “weak or no effects”.
In the case of “RS-12: peptide derived from human interleukin-18; sequence only in FIG. 1A (RDNAPRTIFIIS; Peptide RS-12)”, the “n-fold enhancement of HIV-1 infection” value [3] is reported as “weak or no effects”.
With “RTIAIISM (fibril peptide 20) [Peptide A4, RM-8 analog from alanine scanning]” the “ThT signal (fibril formation)” value [4] was “except for”.
For RTIFGISM (Peptide 18), the “ThT signal (fibril formation)” value [4] was “except for”.
For “RTIFIISA (fibril peptide 24) [Peptide A8, RM-8 analog from alanine scanning]”, the “ThT signal (fibril formation)” value [4] was “except for”.
In the case of RTIFIISMYK (fibril peptide 34) [RK-10], the “zeta potential (sign)” value [5] is reported as “positive zeta potential” and the “enhancement of HIV-1 infection (in words)” value ([3]; serially diluted peptides) is reported as “dose-dependably enhancement”.
In the case of RTIFIKSM (Peptide 26), the “ThT signal (fibril formation)” value [4] is reported as “except for”.
With RTIFIRSM (Peptide 25) the “ThT signal (fibril formation)” value [4] was “except for”.
In the case of RTIPIISM (Peptide 17), the “ThT signal (fibril formation)” value [4] is reported as “except for”.
